According to paper PMC6179936 (Journal of immunology (Baltimore, Md. : 1950), 2018):
Where no end group is shown, it is not given here. The star is where a group is joined. X1 = 2,3‑bis(palmitoyloxy)‑(2RS)‑propyl, CCCCCCCCCCCCCCCC(=O)OCC(C*)OC(=O)CCCCCCCCCCCCCCC; Palmitoyl = CCCCCCCCCCCCCCCC(=O)*

Molecular target: T1, Recombinant human SAA1 made in human embryonic kidney (HEK) cells (human, UniProt P0DJI8 19-122)
T1 sequence (looked up): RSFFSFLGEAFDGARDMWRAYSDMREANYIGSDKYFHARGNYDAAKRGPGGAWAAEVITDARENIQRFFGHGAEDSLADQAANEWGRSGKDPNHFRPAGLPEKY
Test: retention on a 3 kDa cutoff centrifugal filter, read by TNFα from J774 cells

Question: Does Palmitoyl-C(X1)SKKKK [Pam3CSK4, synthetic triacylated lipopeptide] bind?
Answer: binds
